Measured values from the RNAGym collection of RNA variant scans (doi:10.7554/elife.80360).

B1: HDV Ribozyme (parent)
chain: GGCCGGCAUGGUCCCAGCCUCCUCGCUGGCGCCGGCUGGGCAACAUUCCGAGGGGACCGUCCCCUCGGUAAUGGCGAAUGGGACCCA

Variants of: B1
Assay: self-cleavage, relative activity (ratio to wild type); higher = more cleavage; co-transcriptional

Compared with G11A G81U, G11A G81C is lower in self-cleavage: 0.137 for the first, 0.0396 for the second.

Going from G11A G81A to G11A C32U, the self-cleavage rises from 0.0639 to 0.133.

Compared with G11A C32G, G11U A51C is higher in self-cleavage: 0.0683 for the first, 0.324 for the second.

First: G11U A51U
Second: G11U G38A
The self-cleavage of the first is higher: 0.506 for the first, 0.0135 for the second.

Compared with G11U G39C, G11U C30G is higher in self-cleavage: 0 for the first, 0.0767 for the second.

Going from G11C A77C to G11A G67A, the self-cleavage falls from 0.128 to 0.0841.

First: G11A C75G
Second: G11A C75A
The self-cleavage of the first is higher: 0.141 for the first, 0 for the second.

Compared with G11C C61U, G11C C61G is higher in self-cleavage: 0.157 for the first, 0.217 for the second.

Going from G11C C61A to G11U C58G, the self-cleavage rises from 0.185 to 0.44.

Compared with G11C C62G, G11C C62U is higher in self-cleavage: 0.214 for the first, 0.271 for the second.

First: G11C C64G
Second: G11A A87C
The self-cleavage of the first is lower: 0.514 for the first, 0.521 for the second.

Going from G11C G73U to G11C G73A, the self-cleavage falls from 0.16 to 0.0936.

Going from G11A U65A to G11C G38A, the self-cleavage falls from 0.396 to 0.0519.

Compared with G11A G74C, G11A C48G is higher in self-cleavage: 0.0723 for the first, 0.288 for the second.

Going from G11A C48A to G11C A70C, the self-cleavage falls from 0.506 to 0.32.

Compared with G11C A70G, G11A A78C is higher in self-cleavage: 0.0692 for the first, 0.127 for the second.

First: G11A A78U
Second: G11A G35U
The self-cleavage of the first is lower: 0.111 for the first, 0.149 for the second.

Going from G11A G82U to G11A G82A, the self-cleavage rises from 0.0744 to 0.253.

First: G11A C62G
Second: G11A U60A
The self-cleavage of the first is higher: 0.437 for the first, 0.356 for the second.

Compared with G11U C85U, G11U A56C is lower in self-cleavage: 0.767 for the first, 0.332 for the second.

Going from G11A G80U to G11C G81U, the self-cleavage rises from 0.0839 to 0.225.

Compared with G11C C30G, G11C C30U is higher in self-cleavage: 0 for the first, 0.0604 for the second.

First: G11A G25A
Second: G11A C61G
The self-cleavage of the first is lower: 0.0755 for the first, 0.332 for the second.

Compared with G11U C33A, G11A G34C is lower in self-cleavage: 0.0604 for the first, 0.0378 for the second.

Compared with G11C C75U, G11A C22G is lower in self-cleavage: 0.185 for the first, 0.0193 for the second.

Going from G11U G34C to G11U G34A, the self-cleavage rises from 0.166 to 0.21.

Compared with G11C C13A, G11A C36A is lower in self-cleavage: 0.142 for the first, 0.0446 for the second.

First: G11A C36G
Second: G11C U69G
The self-cleavage of the first is lower: 0.151 for the first, 0.516 for the second.

Compared with G11C U69C, G11A G29C is lower in self-cleavage: 0.317 for the first, 0.123 for the second.

Going from G11C G34C to G11A C33U, the self-cleavage rises from 0.0852 to 0.271.

Compared with G11U G25U, G11U C48A is higher in self-cleavage: 0.0623 for the first, 0.423 for the second.

Going from G11C A16G to G11C G17U, the self-cleavage rises from 0.277 to 0.332.

First: G11A G54A
Second: G11A G54U
The self-cleavage of the first is lower: 0.371 for the first, 0.391 for the second.

Going from G11A G54C to G11C G53C, the self-cleavage falls from 0.479 to 0.291.

First: G11C G53A
Second: G11C G53U
The self-cleavage of the first is lower: 0.344 for the first, 0.415 for the second.

First: G11C G68A
Second: G11A G39A
The self-cleavage of the first is higher: 0.295 for the first, 0.0936 for the second.

First: G11U A83G
Second: G11U A83U
The self-cleavage of the first is higher: 0.175 for the first, 0.138 for the second.

Compared with G11C U79C, G11A C15A is lower in self-cleavage: 0.121 for the first, 0.108 for the second.

First: G11U G31U
Second: G11U G31A
The self-cleavage of the first is lower: 0.129 for the first, 0.179 for the second.

First: G11C G28U
Second: G11C G28C
The self-cleavage of the first is higher: 0.0268 for the first, 0 for the second.

First: G11A U79C
Second: G11U C57G
The self-cleavage of the first is lower: 0.161 for the first, 0.358 for the second.

Compared with G11C U65C, G11A C14U is lower in self-cleavage: 0.297 for the first, 0.277 for the second.

Compared with G11A C14A, G11C C14U is higher in self-cleavage: 0.148 for the first, 0.285 for the second.

Compared with G11A C49U, G11A C49A is lower in self-cleavage: 0.386 for the first, 0.363 for the second.

First: G11C U23G
Second: G11C C49U
The self-cleavage of the first is lower: 0.0652 for the first, 0.332 for the second.

First: G11C C84G
Second: G11C C63U
The self-cleavage of the first is higher: 0.831 for the first, 0.264 for the second.

Compared with G11A A77G, G11A A77C is lower in self-cleavage: 0.208 for the first, 0.0898 for the second.

Going from G11C A43U to G11C A43C, the self-cleavage falls from 0.0583 to 0.

Going from G11C G31A to G11C A71G, the self-cleavage rises from 0.0804 to 0.277.

Compared with G11A U27C, G11A U27A is higher in self-cleavage: 0.447 for the first, 0.815 for the second.

Compared with G11U C21U, G11C A45G is higher in self-cleavage: 0.0923 for the first, 0.249 for the second.

Going from G11A C13U to G11A C13G, the self-cleavage rises from 0.0297 to 0.032.

Compared with G11A C57U, G11A C57A is higher in self-cleavage: 0.256 for the first, 0.45 for the second.

Going from G11A C57G to G11U A87G, the self-cleavage falls from 0.432 to 0.404.

First: G11C C32G
Second: G11C C32U
The self-cleavage of the first is lower: 0.0875 for the first, 0.192 for the second.

First: G11U A70C
Second: G11U A71C
The self-cleavage of the first is lower: 0.0536 for the first, 0.405 for the second.

First: G11C C36G
Second: G11C C36U
The self-cleavage of the first is higher: 0.148 for the first, 0.136 for the second.

First: G11U C75U
Second: G11C G35A
The self-cleavage of the first is lower: 0.0422 for the first, 0.125 for the second.

First: G11U A45U
Second: G11C U37A
The self-cleavage of the first is higher: 0.217 for the first, 0 for the second.

First: G11C U37C
Second: G11A C30U
The self-cleavage of the first is higher: 0.201 for the first, 0.0645 for the second.

Compared with G11C G29C, G11C C66A is higher in self-cleavage: 0.0852 for the first, 0.285 for the second.

Compared with G11C C66G, G11C A51G is lower in self-cleavage: 0.383 for the first, 0.297 for the second.

First: G11A U23C
Second: G11A U23A
The self-cleavage of the first is higher: 0.353 for the first, 0.313 for the second.

Compared with G11A U72G, G11A U69C is higher in self-cleavage: 0.0923 for the first, 0.324 for the second.

Going from G11A U69G to G11U C26U, the self-cleavage rises from 0.374 to 0.847.

Going from G11C C48A to G11A G38U, the self-cleavage falls from 0.277 to 0.

Compared with G11C C26G, G11C C26A is lower in self-cleavage: 0.95 for the first, 0.462 for the second.

Compared with G11A G76C, G11A G53C is lower in self-cleavage: 0.796 for the first, 0.372 for the second.

First: G11U C64G
Second: G11A G52A
The self-cleavage of the first is higher: 0.465 for the first, 0.38 for the second.

Going from G11C C21G to G11A U37A, the self-cleavage rises from 0 to 0.0567.

Compared with G11A U37C, G11U G28A is lower in self-cleavage: 0.381 for the first, 0.0219 for the second.

Compared with G11U G28U, G11C C85G is higher in self-cleavage: 0.0396 for the first, 0.831 for the second.

Compared with G11U C32G, G11C C86A is higher in self-cleavage: 0.0767 for the first, 0.489 for the second.

Compared with G11U C19U, G11U C41U is higher in self-cleavage: 0.0489 for the first, 0.358 for the second.

Going from G11U C41A to G11U C86G, the self-cleavage falls from 0.201 to 0.199.

First: G11U C86U
Second: G11U C86A
The self-cleavage of the first is lower: 0.415 for the first, 0.489 for the second.

Compared with G11C A87U, G11C G67U is lower in self-cleavage: 0.453 for the first, 0.323 for the second.

Compared with G11C G67C, G11C G67A is higher in self-cleavage: 0.115 for the first, 0.248 for the second.

Going from G11C C22A to G11C C22U, the self-cleavage falls from 0.0898 to 0.0817.

Compared with G11A C85G, G11U G35U is lower in self-cleavage: 0.678 for the first, 0.115 for the second.

Going from G11A A70U to G11A G40A, the self-cleavage rises from 0.246 to 0.582.

Compared with G11A G40U, G11U C84G is higher in self-cleavage: 0.458 for the first, 0.489 for the second.

Going from G11A G50C to G11A G50A, the self-cleavage falls from 0.439 to 0.366.

Variant G11A G50U has a self-cleavage of 0.283.
